Results from patent US7470669B2, “Isolated polypeptide comprising a leptin fragment” (Serono Genetics Institute, S.A., priority 1999, dated 2008).

Biological target: T1, LSR α′ (Homo sapiens, UniProt Q86X29)
T1 construct: The full-length LSR α, α′, and β clones were reconstructed in pTracer-CMV2 vector; expressed in transfected cells; host or cells: CHO-K1 (transient with Fugene)
T1 sequence (Q86X29 1-630 isoform Q86X29-4): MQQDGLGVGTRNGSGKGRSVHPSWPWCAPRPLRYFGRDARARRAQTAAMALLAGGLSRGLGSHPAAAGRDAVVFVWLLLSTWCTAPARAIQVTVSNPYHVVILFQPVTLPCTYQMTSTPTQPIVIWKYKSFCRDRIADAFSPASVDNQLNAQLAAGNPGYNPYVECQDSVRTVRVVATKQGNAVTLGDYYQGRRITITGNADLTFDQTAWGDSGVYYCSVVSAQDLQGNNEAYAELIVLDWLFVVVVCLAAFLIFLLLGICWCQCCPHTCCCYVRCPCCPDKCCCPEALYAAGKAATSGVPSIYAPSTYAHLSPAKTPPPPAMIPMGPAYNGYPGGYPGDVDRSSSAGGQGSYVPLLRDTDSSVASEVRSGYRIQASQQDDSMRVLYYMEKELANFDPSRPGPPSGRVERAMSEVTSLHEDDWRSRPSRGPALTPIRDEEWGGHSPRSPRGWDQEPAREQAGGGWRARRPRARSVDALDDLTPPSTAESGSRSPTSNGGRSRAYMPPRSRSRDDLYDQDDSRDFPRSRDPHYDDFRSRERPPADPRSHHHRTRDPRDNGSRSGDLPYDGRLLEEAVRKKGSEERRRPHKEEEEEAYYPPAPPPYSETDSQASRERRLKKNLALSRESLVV
Experiment: 125I-leptin binding, uptake and degradation in CHO-K1 cells transfected with LSR α′
Format: cell-based
Description: FIGS. 3A, 3B, 3C, and 3D show the effect of LSR subunit transfection on leptin binding and degradation in CHO-K1 cells. For FIG. 3A, CHO-K1 cells were transfected with increasing concentrations of the α, (□), α′ (▪) or β (◯) LSR plasmid, or vector alone (●) using Fugene transfection reagent. After 48 h, the cells were washed once in PBS and incubated at 37° C. for 2 h with 10 ng/mL of ^125I-leptin in DMEM containing 0.2% (w/v) BSA, 2 mM CaCl2 and 5 mM HEPES, pH 7.4 (Buffer A). The monolayers were washed and lysed with 0.1 N NaOH containing 0.24 mM EDTA, and the lysates were counted. The results are shown as the amount of cell-associated ^125I-leptin. For FIG. 3B, lysates were prepared from CHO-K1 wild type, stable transfectants of vector or LSR α′ subunit, and PLC, and separated on a 10% SDS-polyacrylamide gel under denaturing and reduced conditions. After transfer to nitrocellulose, Western blots were performed using anti-LSR 170 antibody (can also be done with the human equivalent, 93A). Northern blots were done to detect LSR mRNA in CHO-K1 wild-type versus PLC. RT-PCR analysis was also done in CHO-K1 as compared to PLC. For FIGS. 3C and 3D, confluent monolayers of stable-transfected cell lines expressing LSR α′ subunit (▪) or vector alone (●) were washed once in PBS and incubated at 37° C. for 2 h with increasing concentrations of ^125I-leptin in Buffer A. The amount of cell-associated (FIG. 3C) and degraded (FIG. 3D) ^125I-leptin was then measured as described herein. Results are shown as the mean of triplicate determinations.
CHO-K1 cells were plated at a density of 300,000 cells/36 mm dish the day before transfection. After 24 h, plasmid preincubated with Fugene transfection reagent was added to the cells, which were further incubated at 37° C. Cells were used 48 h after transfection as described in the Brief Description of the Figures.
Stable transfectants were prepared from CHO-K1 cells using Superfect according to the manufacturer's instructions. After introduction of the plasmid into the cell with Superfect, the cells were grown in the presence of 750 μg/mL zeocin. After elimination of untransfected cells, the antibiotic concentration was reduced to 500 μg/mL. Clones were isolated using cloning cylinders, and maintained in tissue culture media containing 100 μg/mL zeocin.
To determine which of the LSR subunits is responsible for leptin binding, CHO-K1 cells were transiently transfected with increasing concentrations of each of the 3 human LSR plasmids (FIG. 3A). CHO-K1 cells were selected because they had the lowest level of endogenous LSR expression of the different cell lines tested. This level is far lower than that of a human hepatocyte cell line (PLC) used to systematically characterize human LSR activity (FIG. 3B). […]

leptin: plasma protein of 16 kDa produced by adipocytes; recombinant human or mouse leptin, species depends on the experiment
Kd (CHO-K1 cells stably expressing LSR α′, Lineweaver-Burk transformation, read-out: estimated Kd of leptin binding): 1.3 nM | amount of 125I-leptin degraded as share of that bound and internalized by the cells (CHO-K1 cells transfected with LSR α′): 16% | Kd relative to that of the Ob-R (LSR α′ Kd versus Ob-R Kd): ~2 fold | binding of leptin to CHO-K1 cells (transient transfection with LSR α′ plasmid, 10 ng/mL 125I-leptin, 2 h 37° C.): increased
